T1: Alpha-2-Macroglobulin
T1 chain: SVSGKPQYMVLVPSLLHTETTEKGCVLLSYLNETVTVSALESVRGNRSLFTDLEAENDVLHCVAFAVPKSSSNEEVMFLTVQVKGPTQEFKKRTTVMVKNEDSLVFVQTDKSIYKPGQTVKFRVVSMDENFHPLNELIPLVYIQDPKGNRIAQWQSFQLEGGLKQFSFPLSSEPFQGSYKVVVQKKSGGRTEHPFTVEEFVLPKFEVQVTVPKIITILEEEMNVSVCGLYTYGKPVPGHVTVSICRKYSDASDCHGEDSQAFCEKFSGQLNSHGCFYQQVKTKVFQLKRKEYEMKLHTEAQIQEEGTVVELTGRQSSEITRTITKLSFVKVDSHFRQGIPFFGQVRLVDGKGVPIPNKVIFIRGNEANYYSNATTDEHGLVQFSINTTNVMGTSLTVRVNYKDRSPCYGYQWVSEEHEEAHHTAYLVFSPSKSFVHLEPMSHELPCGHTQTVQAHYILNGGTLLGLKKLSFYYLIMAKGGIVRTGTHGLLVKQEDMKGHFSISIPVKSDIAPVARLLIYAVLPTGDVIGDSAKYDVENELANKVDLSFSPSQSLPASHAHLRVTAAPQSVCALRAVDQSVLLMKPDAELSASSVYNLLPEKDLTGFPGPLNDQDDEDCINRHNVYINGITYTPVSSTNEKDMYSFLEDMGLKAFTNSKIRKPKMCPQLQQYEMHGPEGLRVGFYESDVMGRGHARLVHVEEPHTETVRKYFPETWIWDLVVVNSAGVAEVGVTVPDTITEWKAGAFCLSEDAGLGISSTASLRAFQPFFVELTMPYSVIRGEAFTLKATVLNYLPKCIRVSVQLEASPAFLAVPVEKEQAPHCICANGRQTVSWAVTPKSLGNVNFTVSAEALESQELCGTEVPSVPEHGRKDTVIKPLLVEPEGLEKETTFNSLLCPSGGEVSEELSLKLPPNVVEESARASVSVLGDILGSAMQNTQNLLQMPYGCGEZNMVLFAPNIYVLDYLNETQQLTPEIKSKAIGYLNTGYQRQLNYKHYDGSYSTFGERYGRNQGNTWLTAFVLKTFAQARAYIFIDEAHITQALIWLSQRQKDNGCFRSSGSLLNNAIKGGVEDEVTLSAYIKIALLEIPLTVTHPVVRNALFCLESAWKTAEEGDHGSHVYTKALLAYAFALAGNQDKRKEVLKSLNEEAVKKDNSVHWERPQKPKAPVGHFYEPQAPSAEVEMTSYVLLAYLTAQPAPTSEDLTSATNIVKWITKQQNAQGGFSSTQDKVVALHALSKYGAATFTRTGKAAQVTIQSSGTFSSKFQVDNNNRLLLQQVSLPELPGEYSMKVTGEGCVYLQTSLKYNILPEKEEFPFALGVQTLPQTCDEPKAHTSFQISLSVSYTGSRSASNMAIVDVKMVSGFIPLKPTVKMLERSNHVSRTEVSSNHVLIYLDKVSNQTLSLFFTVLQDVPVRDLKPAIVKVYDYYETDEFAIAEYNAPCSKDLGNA


Target: T1, Alpha-2-Macroglobulin

| Protein | generation of α2M neoepitopes on digestion (50 ng α2M, 100 ng enzyme, 37° C., 1-30 min) |
| --- | --- |
| ADAMTS-5 (protein) SISRARQVELLLVADASMARLYGRGLQHYLLTLASIANRLYSHASIENHIRLAVVKVVVLGDKDKSLEVSKNAATTLKNFCKWQHQHNQLGDDHEEHYDAAILFTREDLCGHHSCDTLGMADVGTICSPERSCAVIEDDGLHAAFTVAHEIGHLLGLSHDDSKFCEETFGSTEDKRLMSSILTSIDASKPWSKCTSATITEFLDDGHGNCLLDLPRKQILGPEELPGQTYDATQQCNLTFGPEYSVCPGMDVCARLWCAVVRQGQMVCLTKKLPAVEGTPCGKGRICLQGKCVDKTKKKYYSTSSHGNWGSWGSWGQCSRSCGGGVQFAYRHCNNPAPRNNGRYCTGKRAIYRSCSLMPCPPNGKSFRHEQCEAKNGYQSDAKGVKTFVEWVPKYAGVLPADVCKLTCRAKGTGYYVVFSPKVTDGTECRLYSNSVCVRGKCVRTGCDGIIGSKLQYDKCGVCGGDNSSCTKIVGTFNKKSKGYTDVVRIPEGATHIKVRQFKAKDQTRFTAYLALKKKNGEYLINGKYMISTSETIIDINGTVMNYSGWSHRDDFLHGMGYSATKEILIVQILATDPTKPLDVRYSFFVPKKSTPKVNSVTSHGSNKVGSHTSQPQWVTGPWLACSRTCDTGWHTRTVQCQDGNRKLAKGCPLSQRPSAFKQCLLKKC | Both neoepitopes were generated as early as after 2 minutes of incubation, and increased over time, up to after 30 minutes of incubation |
| ADAMTS-4 (protein) FASLSRFVETLVVADDKMAAFHGAGLKRYLLTVMAAAAKAFKHPSIRNPVSLVVTRLVILGSGEEGPQVGPSAAQTLRSFCAWQRGLNTPEDSDPDHFDTAILFTRQDLCGVSTCDTLGMADVGTVCDPARSCAIVEDDGLQSAFTAAHELGHVFNMLHDNSKPCISLNGPLSTSRHVMAPVMAHVDPEEPWSPCSARFITDFLDNGYGHCLLDKPEAPLHLPVTFPGKDYDADRQCQLTFGPDSRHCPQLPPPCAALWCSGHLNGHAMCQTKHSPWADGTPCGPAQACMGGRCLHMDQLQDFNIPQAGGWGPWGPWGDCSRTCGGGVQFSSRDCTRPVPRNGGKYCEGRRTRFRSCNTEDCPTGSALTFREEQCAAYNHRTDLFKSFPGPMDWVPRYTGVAPQDQCKLTCQAQALGYYYVLEPRVVDGTPCSPDSSSVCVQGRCIHAGCDRIIGSKKKFDKCMVCGGDGSGCSKQSGSFRKFRYGYNNVVTIPAGATHILVRQQGNPGHRSIYLALKLPDGSYALNGEYTLMPSPTDVVLPGAVSLRYSGATAASETLSGHGPLAQPLTLQVLVAGNPQDTRLRYSFFVPRPTPSTPRPTPQDWLHRRAQILEILRRRPWAGRK | Both neoepitopes were generated as early as after 2 minutes of incubation, and increased over time, up to after 30 minutes of incubation |

From US20050037432
